“And” between values parts separate entries of the source, which are not always exact repeats. Equal values may be shown once.
How the values were obtained:
[1] = target: 人TNFα (human) (UniProt P01375); assay: cell-based or functional assay
[2] = target: 人TNFα (human) (UniProt P01375); assay: SPR (Biacore), TNFa coupled to the chip, antibody as analyte

Chain of UniProt P01375 (P01375 77-233 limits assumed): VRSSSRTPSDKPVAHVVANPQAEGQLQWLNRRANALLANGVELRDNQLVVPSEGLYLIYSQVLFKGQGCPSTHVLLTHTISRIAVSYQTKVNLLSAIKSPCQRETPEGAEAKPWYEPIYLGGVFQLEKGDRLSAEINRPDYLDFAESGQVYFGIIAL

IC50(pM), L929细胞保护试验 [1]: 1.37 pM and 2.52 pM and 2.32 pM
IC50(pM), L929细胞保护试验, 平均值 [1]: 2.42 pM
Kd [2]: 2.01 nM
Substance: humira (antibody)
